Results from publication PMC10784468 (Nature Communications, 2024).
Where two headings read alike, the source gives them in different places. Positions of bridges follow the written chain, without caps; N, C: chain ends. Residues, ends and D or L forms follow the SMILES beside them. *: point of attachment. X1 = O=C(O)c1ccc(-c2c3nc(c(-c4ccc(C(=O)O)cc4)c4ccc([nH]4)c(-c4ccc(C(=O)*)cc4)c4nc(c(-c5ccc(C(=O)O)cc5)c5ccc2[nH]5)C=C4)C=C3)cc1; X2 = O=C(O)C/C(=C/C(=O)*)C(=O)O

Experiments:
EJ cells = experiment: Intracellular LPO fluorescence imaging (C11-BODIPY); assay type: cell-based; conditions: pH 6.5, 40 μM, 8 h
Method: Initially, EJ cells (5 × 10^5) were cultured in confocal dish with a CO2 incubator overnight at 37 °C. […] Next, EJ cells were collected and washed with PBS for 3 times.

[1] = for Plasma Drug concentration: fluorescence; for Tumor Drug concentration: tumor lysate fluorescence
Method: Moreover, ex vivo fluorescence imaging of tumor and major organs was performed to investigate the dose-dependent tumor accumulation of Gi-F-CAA (Fig. 3e and Supplementary Fig. 25). […] Subsequently, time-dependent in vivo fluorescence imaging of EJ xenograft mice was conducted to investigate the in vivo biodistribution and metabolism of Gi-F-CAA after administrated with Gi-F-CAA (8 mg/kg in 100 μL PBS). […] Representative time-dependent fluorescence images of tumor tissue lysates and plasma were acquired after intravenous administration with Gi-F-CAA (8 mg/kg in 100 μL PBS) (Fig. 3h).
Firstly, A density of 5 × 10^6 EJ cell resuspended in Matrigel were subcutaneously injected into the right hind of mice to construct EJ xenograft model. When the tumor volume reached about 200–400 mm^3, the mice were administrated with Cy labeled Gi-F (8 mg/kg in 100 μL PBS), Cy labeled Gi-F-SA (8 mg/kg in 100 μL PBS) and Cy labeled Gi-F-CAA (8 mg/kg in 100 μL PBS) by intravenous injection for in vivo fluorescence imaging at different timepoints (10 min, 20 min, 40 min, 1 h, 2 h, 4 h, 8 h, 12 h and 24 h) with in vivo imaging system (IVIS). Meanwhile, the EJ xenograft mice were sacrificed for collecting major organs and tumors to evaluate the biodistribution of Gi-F-CAA.

786-O xenograft tumors = experiment: In vivo antitumor evaluation in large tumor model (786-O); design: species or system BALB/c nude mice; conditions: six i.v. injections at 2-days intervals, Gi-F-CAA 8 mg/kg, Bevacizumab 5 mg/kg
[2] = EJ xenograft mice, i.v. 8 mg/kg, 0.017 h, mice 1
[3] = EJ xenograft mice, i.v. 8 mg/kg, 0.017 h, mice 2
[4] = EJ xenograft mice, i.v. 8 mg/kg, 0.017 h, mice 3
[5] = EJ xenograft mice, i.v. 8 mg/kg, 0.083 h, mice 1
[6] = EJ xenograft mice, i.v. 8 mg/kg, 0.083 h, mice 2
[7] = EJ xenograft mice, i.v. 8 mg/kg, 0.083 h, mice 3
[8] = EJ xenograft mice, i.v. 8 mg/kg, 0.167 h, mice 1
[9] = EJ xenograft mice, i.v. 8 mg/kg, 0.167 h, mice 2
[10] = EJ xenograft mice, i.v. 8 mg/kg, 0.167 h, mice 3
[11] = EJ xenograft mice, i.v. 8 mg/kg, 0.25 h, mice 1
[12] = EJ xenograft mice, i.v. 8 mg/kg, 0.25 h, mice 2
[13] = EJ xenograft mice, i.v. 8 mg/kg, 0.25 h, mice 3
[14] = EJ xenograft mice, i.v. 8 mg/kg, 0.5 h, mice 1
[15] = EJ xenograft mice, i.v. 8 mg/kg, 0.5 h, mice 2
[16] = EJ xenograft mice, i.v. 8 mg/kg, 0.5 h, mice 3
[17] = EJ xenograft mice, i.v. 8 mg/kg, 0.75 h, mice 1
[18] = EJ xenograft mice, i.v. 8 mg/kg, 0.75 h, mice 2
[19] = EJ xenograft mice, i.v. 8 mg/kg, 0.75 h, mice 3
[20] = EJ xenograft mice, i.v. 8 mg/kg, 1 h, mice 1
[21] = EJ xenograft mice, i.v. 8 mg/kg, 1 h, mice 2
[22] = EJ xenograft mice, i.v. 8 mg/kg, 1 h, mice 3
[23] = EJ xenograft mice, i.v. 8 mg/kg, 2 h, mice 1
[24] = EJ xenograft mice, i.v. 8 mg/kg, 2 h, mice 2
[25] = EJ xenograft mice, i.v. 8 mg/kg, 2 h, mice 3
[26] = EJ xenograft mice, i.v. 8 mg/kg, 4 h, mice 1
[27] = EJ xenograft mice, i.v. 8 mg/kg, 4 h, mice 2
[28] = EJ xenograft mice, i.v. 8 mg/kg, 4 h, mice 3
[29] = EJ xenograft mice, i.v. 8 mg/kg, 8 h, mice 1
[30] = EJ xenograft mice, i.v. 8 mg/kg, 8 h, mice 2
[31] = EJ xenograft mice, i.v. 8 mg/kg, 8 h, mice 3
[32] = EJ xenograft mice, i.v. 8 mg/kg, 12 h, mice 1
[33] = EJ xenograft mice, i.v. 8 mg/kg, 12 h, mice 2
[34] = EJ xenograft mice, i.v. 8 mg/kg, 12 h, mice 3
[35] = EJ xenograft mice, i.v. 8 mg/kg, 24 h, mice 1
[36] = EJ xenograft mice, i.v. 8 mg/kg, 24 h, mice 2
[37] = EJ xenograft mice, i.v. 8 mg/kg, 24 h, mice 3

CC(C)C[C@H](NC(=O)c1ccc(-c2c3nc(c(-c4ccc(C(=O)O)cc4)c4ccc([nH]4)c(-c4ccc(C(=O)O)cc4)c4nc(c(-c5ccc(C(=O)O)cc5)c5ccc2[nH]5)C=C4)C=C3)cc1)C(=O)N[C@@H](CCCCNC(=O)/C=C(/CC(=O)O)C(=O)O)C(=O)N[C@@H](CC(C)C)C(=O)N[C@@H](CCCCN)C(=O)N[C@@H](CC(C)C)C(=O)N[C@@H](CCCCNC(=O)/C=C(/CC(=O)O)C(=O)O)C(=O)NCC(=O)N[C@@H](C)C(=O)N[C@H]1CSSC[C@@H](C(=O)N2CCC[C@H]2C(=O)N[C@H](C(=O)O)C(C)C)NC(=O)[C@@H]2CCCN2C(=O)[C@H](Cc2ccc(O)cc2)NC(=O)[C@H](CC(C)C)NC(=O)[C@@H]2CCCN2C(=O)[C@H](CC(C)C)NC(=O)[C@H](Cc2c[nH]c3ccccc23)NC(=O)[C@H](CC(N)=O)NC1=O [Gi-F-CAA] (X1-LK(X2)LKLK(X2)GACNWLPLYPCPV-OH; disulfide 9-17; C-terminus assumed)
intracellular LPO (BODIPY 581/591 C11) (EJ cells): extensive accumulation of LPO | blood circulation half-life (t1/2) ([1]; EJ xenograft mice, i.v. 8 mg/kg in 100 μL PBS, plasma fluorescence, n = 3 mice): 1.03 ± 0.192 h | Plasma Drug concentration [1, 2]: 33.86 µM | Plasma Drug concentration [1, 3]: 27.32 µM | Plasma Drug concentration [1, 4]: 28.25 µM | Plasma Drug concentration [1, 5]: 31.76 µM | Plasma Drug concentration [1, 6]: 25.29 µM | Plasma Drug concentration [1, 7]: 26.44 µM | Plasma Drug concentration [1, 8]: 24.34 µM | Plasma Drug concentration [1, 9]: 19.45 µM | Plasma Drug concentration [1, 10]: 20.15 µM | Plasma Drug concentration [1, 11]: 19.65 µM | Plasma Drug concentration [1, 12]: 15.52 µM | Plasma Drug concentration [1, 13]: 16.27 µM | Plasma Drug concentration [1, 14]: 15.69 µM | Plasma Drug concentration [1, 15]: 12.64 µM | Plasma Drug concentration [1, 16]: 13.24 µM | Plasma Drug concentration [1, 17]: 14.64 µM | Plasma Drug concentration [1, 18]: 11.89 µM | Plasma Drug concentration [1, 19]: 12.38 µM | Plasma Drug concentration [1, 20]: 13.02 µM | Plasma Drug concentration [1, 21]: 10.61 µM | Plasma Drug concentration [1, 22]: 11.06 µM | Plasma Drug concentration [1, 23]: 7.79 µM | Plasma Drug concentration [1, 24]: 8.53 µM | Plasma Drug concentration [1, 25]: 9.07 µM | Plasma Drug concentration [1, 26]: 6.64 µM | Plasma Drug concentration [1, 27]: 6.59 µM | Plasma Drug concentration [1, 28]: 6.96 µM | Plasma Drug concentration [1, 29]: 3.65 µM | Plasma Drug concentration [1, 30]: 4.12 µM | Plasma Drug concentration [1, 31]: 4.41 µM | Plasma Drug concentration [1, 32]: 2.66 µM | Plasma Drug concentration [1, 33]: 3.28 µM | Plasma Drug concentration [1, 34]: 3.5 µM | Plasma Drug concentration [1, 35]: 1.38 µM | Plasma Drug concentration [1, 36]: 1.99 µM | Plasma Drug concentration [1, 37]: 2.17 µM | Tumor Drug concentration [1, 2]: 11.93 µM | Tumor Drug concentration [1, 3]: 13.59 µM | Tumor Drug concentration [1, 4]: 9.61 µM | Tumor Drug concentration [1, 5]: 13.61 µM | Tumor Drug concentration [1, 6]: 15.1 µM | Tumor Drug concentration [1, 7]: 10.98 µM | Tumor Drug concentration [1, 8]: 14.15 µM | Tumor Drug concentration [1, 9]: 15.1 µM | Tumor Drug concentration [1, 10]: 11.74 µM | Tumor Drug concentration [1, 11]: 15.43 µM | Tumor Drug concentration [1, 12]: 16.04 µM | Tumor Drug concentration [1, 13]: 12.46 µM | Tumor Drug concentration [1, 14]: 17.54 µM | Tumor Drug concentration [1, 15]: 16.74 µM | Tumor Drug concentration [1, 16]: 14.43 µM | Tumor Drug concentration [1, 17]: 16.03 µM | Tumor Drug concentration [1, 18]: 16.19 µM | Tumor Drug concentration [1, 19]: 13.02 µM | Tumor Drug concentration [1, 20]: 14.49 µM | Tumor Drug concentration [1, 21]: 15.3 µM | Tumor Drug concentration [1, 22]: 11.94 µM | Tumor Drug concentration [1, 23]: 12.9 µM | Tumor Drug concentration [1, 24]: 13.97 µM | Tumor Drug concentration [1, 25]: 10.6 µM | Tumor Drug concentration [1, 26]: 10.23 µM | Tumor Drug concentration [1, 27]: 11.8 µM | Tumor Drug concentration [1, 28]: 8.38 µM | Tumor Drug concentration [1, 29]: 7.25 µM | Tumor Drug concentration [1, 30]: 8.28 µM | Tumor Drug concentration [1, 31]: 6.04 µM | Tumor Drug concentration [1, 32]: 5.72 µM | Tumor Drug concentration [1, 33]: 6.55 µM | Tumor Drug concentration [1, 34]: 4.61 µM | Tumor Drug concentration [1, 35]: 4.93 µM | Tumor Drug concentration [1, 36]: 5.65 µM | Tumor Drug concentration [1, 37]: 3.95 µM | tumor tissue lysate signal relative to plasma ([1]; i.v. 8 mg/kg, from 1 h to 24 h): about 3 fold | level at time molar ([1]; mouse, in vivo, iv, 8 mg/kg): 16.2 µM | tumor volume course in large tumors (~500 mm^3) (786-O xenograft tumors): declining tendency for 10 days and maintained a long-termed tumor growth inhibition
